# Results as given in PMC10019453, “Integrative structural analysis of the type III secretion system needle complex from Shigella flexneri” (Protein Science : A Publication of the Protein Society, 2023).
# T1: MxiD[SctC] (Shigella flexneri, UniProt Q04641 23-566)
# T1 construct: the last 18 residues (S549-Y566) are not resolved; 16 subunits in the connector (N0, N1), 15 in the OM ring (N3, secretin, S domain); also called secretin; OM ring
# T1 sequence: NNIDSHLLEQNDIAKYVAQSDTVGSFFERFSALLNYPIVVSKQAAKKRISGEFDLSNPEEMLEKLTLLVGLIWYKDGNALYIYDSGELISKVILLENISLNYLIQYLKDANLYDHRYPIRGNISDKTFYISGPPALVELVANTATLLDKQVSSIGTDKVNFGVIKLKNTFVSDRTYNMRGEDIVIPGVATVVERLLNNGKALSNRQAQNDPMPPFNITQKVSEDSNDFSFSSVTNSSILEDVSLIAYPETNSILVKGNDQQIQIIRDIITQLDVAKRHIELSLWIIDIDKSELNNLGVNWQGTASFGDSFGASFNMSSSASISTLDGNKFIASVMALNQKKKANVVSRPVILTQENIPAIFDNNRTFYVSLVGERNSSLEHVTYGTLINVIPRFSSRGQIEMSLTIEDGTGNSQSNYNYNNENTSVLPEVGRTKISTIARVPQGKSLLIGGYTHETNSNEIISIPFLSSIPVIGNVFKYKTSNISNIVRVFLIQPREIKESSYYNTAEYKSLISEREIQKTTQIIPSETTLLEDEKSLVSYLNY
# B1: MxiM[SctG] (natural protein)
# chain: CALKSSSNSEKEWHIVPVSKDYFSIPNDLLWSFNTTNKSINVYSKCISGKAVYSFNAGKFMGNFNVKEVDGCFMDAQKIAIDKLFSMLKDGVVLKGNKINDTILIEKDGEVKLKLIRGI
# modifications: lipidated N-terminus
# notes: MxiM[SctG], pilotin of the Shigella flexneri T3SS; also called pilotin; pilot protein
# Target: T1, MxiD[SctC]
# Experiment: cross-linking; BS3 cross-linking mass spectrometry of the isolated needle complex; 0.2-0.3 mM BS3, 30 min, room temperature; 2% FDR at residue-pair level
# Conditions: both partners purified
binder,measurement,value
B1,binding result,binds
